In the supplement of paper PMC10899765:

test system: MCF10A; experiment: percent viability (nuclei count relative to siNT); higher = more viable cells; details: 20 nM; 72 h
Procedure: (§1)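 After 72 h, cells were fixed and stained with Hoechst and anti-fibrillarin, and nucleoli per nucleus were counted with CellProfiler. Values are plate-adjusted percent effect for the one-nucleolus and 5+ nucleoli phenotypes, normalised to siNT (0%) and to the positive controls siNOL11 or siKIF11 (100%), as the mean of biological triplicates. Percent viability is the nuclei count relative to siNT.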

Compared with CAGGUCACGUCUCUGCAGUUAC [hsa-miR-370-5p], “GUGUGGAAGAUGGGAGGAGAAA [hsa-miR-6833-5p]” is lower in percent viability: 54.3% for the first, 49.8% for the second.

Compared with “CUGGGGAGAUCCUCGAGGUUGG [hsa-miR-3150a-3p]”, UCUUCUCUGUUUUGGCCAUGUG [hsa-miR-942] is higher in percent viability: 18.9% for the first, 73.4% for the second.

Going from CUGGUACAGGCCUGGGGGACAG [hsa-miR-150-3p] to “AGCAGUGUUUGUUUUGCCCACA [hsa-miR-6499-3p]”, the percent viability falls from 66.2% to 30.3%.

Going from CAGAUCAUGGGACUGUCUCAG [hsa-miR-5694] to GUUUGCACGGGUGGGCCUUGUCU [hsa-miR-557], the percent viability falls from 66.3% to 47.7%.

Going from “UCAGUGCACUACAGAACUUUGU [hsa-miR-148a-3p]” to “UCAGCAUUCAUUGGCACCAGAGA [hsa-miR-7157-5p]”, the percent viability falls from 88.9% to 30.6%.

Going from UUGUGUCAAUAUGCGAUGAUGU [hsa-miR-592] to “UGGGGGAGGAAGGACAGGCCAU [hsa-miR-7111-5p]”, the percent viability falls from 69.9% to 15.3%.

Compared with “AAGUGCCGCCAUCUUUUGAGUGU [hsa-miR-371a-3p]”, GUAAGCAGGGGCUCUGGGUGA [hsa-miR-6792-5p] is lower in percent viability: 45.8% for the first, 30.2% for the second.

Going from CCCUUGGGUCUGAUGGGGUAG [hsa-miR-3189-3p] to CUGGACUGAGCCGUGCUACUGG [hsa-miR-1269a], the percent viability rises from 25.3% to 52.7%.

Going from “UAGUCCCUUCCUUGAAGCGGUC [hsa-miR-2114-5p]” to “GAUCCAUCUCUGCCUGUAUUGGC [hsa-miR-7151-5p]”, the percent viability rises from 25.2% to 80.6%.

Compared with “CCAAGGAAGGAGGCUGGACAUC [hsa-miR-6830-5p]”, “UGGGCAGGGGCUUAUUGUAGGAG [hsa-miR-6721-5p]” is lower in percent viability: 47.1% for the first, 21.3% for the second.

Going from CCCAGAUAAUGGCACUCUCAA [hsa-miR-488-5p] to CAAAGUUUAAGAUCCUUGAAGU [hsa-miR-561-3p], the percent viability rises from 50.9% to 182%.

Compared with UUCUGGAAUUCUGUGUGAGGGA [hsa-miR-1299], “AACAACAAAAUCACUAGUCUUCCA [hsa-miR-3529-3p]” is lower in percent viability: 58.7% for the first, 44.1% for the second.

First: UCCCACGUUGUGGCCCAGCAG [hsa-miR-662]
Second: UAGCAGCACAGAAAUAUUGGC [hsa-miR-195-5p]
The percent viability of the first is higher: 128% for the first, 26.4% for the second.

First: AGCGGGGAGGAAGUGGGCGCUGCUU [hsa-miR-4706]
Second: AAAAGUAAUUGCGGUUUUUGCC [hsa-miR-548am-5p]
The percent viability of the first is lower: 32.7% for the first, 139% for the second.

First: UUCCUAUGCAUAUACUUCUUUG [hsa-miR-202-5p]
Second: UGUCAGUUUGUCAAAUACCCCA [hsa-miR-223-3p]
The percent viability of the first is lower: 72.7% for the first, 86.9% for the second.

Going from UAGACCAUCUUUCUAGAGUAU [hsa-miR-6502-3p] to GAUAUUCAGAGGCUAGGUGG [hsa-miR-6074], the percent viability falls from 102% to 34.5%.

Compared with UUCCCUUUGUCAUCCUAUGCCU [hsa-miR-204-5p], GCAGCAGGGUGAAACUGACACA [hsa-miR-761] is lower in percent viability: 100% for the first, 56.9% for the second.

Compared with ACAAAGUGCUUCCCUUUAGAGUGU [hsa-miR-520g], UGUCUACAUUAAUGAAAAGAGC [hsa-miR-3618] is lower in percent viability: 77.4% for the first, 66.2% for the second.

Going from AUGAGACUCAUGUAAAACAUCUU [hsa-miR-3672] to “CCUCACCACCCCUUCUGCCUGCA [hsa-miR-6511b-3p]”, the percent viability rises from 52.6% to 69.7%.

First: GCGGUGAUCCCGAUGGUGUGAGC [hsa-miR-598-5p]
Second: CAUGGGGUAGGGCAGAGUAGG [hsa-miR-6890-5p]
The percent viability of the first is higher: 93.1% for the first, 43.6% for the second.

First: AACAUAGAGGAAAUUCCACGU [hsa-miR-376c-3p]
Second: UGCAGGGGUCGGGUGGGCCAGG [hsa-miR-6722-3p]
The percent viability of the first is higher: 99.8% for the first, 45.7% for the second.

Compared with “AAAAACUGCAAUCACUUUUGC [hsa-miR-548az-3p]”, UCCUCUUCUCCCUCCUCCCAG [hsa-miR-877-3p] is lower in percent viability: 62% for the first, 59% for the second.

Going from CCUCCCAUGCCAAGAACUCCC [hsa-miR-2116-3p] to GACUGGACAAGCUGAGGAA [hsa-miR-3654], the percent viability rises from 95.6% to 99.2%.

Compared with CAAGCUCGUGUCUGUGGGUCCG [hsa-miR-99b-3p], “CCACCUCCCCUGCAAACGUCCA [hsa-miR-1306-5p]” is lower in percent viability: 84.3% for the first, 35% for the second.

Compared with CCAGACUGUGGCUGACCAGAGG [hsa-miR-4494], “CAAAGUGCUCAUAGUGCAGGUAG [hsa-miR-20b-5p]” is lower in percent viability: 96.4% for the first, 58.4% for the second.

Going from “AGCAAGGCGGCAUCUCUCUGAU [hsa-miR-4708-3p]” to CGCUCUAGGCACCGCAGCA [hsa-miR-1301-5p], the percent viability rises from 43.7% to 77.5%.

First: UUGAAUUCUUGGCCUUAAGUGAU [hsa-miR-4452]
Second: AAACAUUCGCGGUGCACUUCUU [hsa-miR-543]
The percent viability of the first is higher: 42.1% for the first, 37.4% for the second.

First: UCCCCUCCACUUUCCUCCUAG [hsa-miR-6887-3p]
Second: CUCCGUUUGCCUGUUUCGCUG [hsa-miR-1468]
The percent viability of the first is lower: 33.5% for the first, 112% for the second.

Going from “UUGGGGUGGAGGGCCAAGGAGC [hsa-miR-6819-5p]” to CUGUAAUAUAAAUUUAAUUUAUU [hsa-miR-2054], the percent viability rises from 3.49% to 168%.

In the case of CUUCCUCGUCUGUCUGCCCC [hsa-miR-1238-3p], the percent viability is reported as 74.5%.

test system: MCF10A; experiment: one-nucleolus phenotype percent effect (relative to siNT 0% and siNOL11 100%); higher = more cells with one nucleolus (ribosome biogenesis inhibition); details: 20 nM; 72 h
Procedure: as §1

Compared with CAGGUCACGUCUCUGCAGUUAC [hsa-miR-370-5p], “GUGUGGAAGAUGGGAGGAGAAA [hsa-miR-6833-5p]” is higher in “one-nucleolus phenotype percent effect” value: -14.6% for the first, -3.83% for the second.

First: CUGGGGAGAUCCUCGAGGUUGG [hsa-miR-3150a-3p]
Second: UCUUCUCUGUUUUGGCCAUGUG [hsa-miR-942]
The “one-nucleolus phenotype percent effect” value of the first is higher: 23.4% for the first, -0.685% for the second.

First: CUGGUACAGGCCUGGGGGACAG [hsa-miR-150-3p]
Second: AGCAGUGUUUGUUUUGCCCACA [hsa-miR-6499-3p]
The “one-nucleolus phenotype percent effect” value of the first is lower: 11% for the first, 16.7% for the second.

First: CAGAUCAUGGGACUGUCUCAG [hsa-miR-5694]
Second: GUUUGCACGGGUGGGCCUUGUCU [hsa-miR-557]
The “one-nucleolus phenotype percent effect” value of the first is lower: -16.1% for the first, 34.6% for the second.

Going from “UCAGUGCACUACAGAACUUUGU [hsa-miR-148a-3p]” to “UCAGCAUUCAUUGGCACCAGAGA [hsa-miR-7157-5p]”, the “one-nucleolus phenotype percent effect” value rises from -16.7% to 13.5%.

Compared with UUGUGUCAAUAUGCGAUGAUGU [hsa-miR-592], “UGGGGGAGGAAGGACAGGCCAU [hsa-miR-7111-5p]” is higher in “one-nucleolus phenotype percent effect” value: 31.3% for the first, 36.7% for the second.

Compared with “AAGUGCCGCCAUCUUUUGAGUGU [hsa-miR-371a-3p]”, GUAAGCAGGGGCUCUGGGUGA [hsa-miR-6792-5p] is higher in “one-nucleolus phenotype percent effect” value: -8.12% for the first, 56.4% for the second.

First: CCCUUGGGUCUGAUGGGGUAG [hsa-miR-3189-3p]
Second: CUGGACUGAGCCGUGCUACUGG [hsa-miR-1269a]
The “one-nucleolus phenotype percent effect” value of the first is higher: 15.4% for the first, 6.41% for the second.

First: UAGUCCCUUCCUUGAAGCGGUC [hsa-miR-2114-5p]
Second: GAUCCAUCUCUGCCUGUAUUGGC [hsa-miR-7151-5p]
The “one-nucleolus phenotype percent effect” value of the first is higher: 43.8% for the first, 5.88% for the second.

First: CCAAGGAAGGAGGCUGGACAUC [hsa-miR-6830-5p]
Second: UGGGCAGGGGCUUAUUGUAGGAG [hsa-miR-6721-5p]
The “one-nucleolus phenotype percent effect” value of the first is lower: 13.3% for the first, 19.5% for the second.

Going from CCCAGAUAAUGGCACUCUCAA [hsa-miR-488-5p] to CAAAGUUUAAGAUCCUUGAAGU [hsa-miR-561-3p], the “one-nucleolus phenotype percent effect” value falls from -5.8% to -26.2%.

Compared with UUCUGGAAUUCUGUGUGAGGGA [hsa-miR-1299], “AACAACAAAAUCACUAGUCUUCCA [hsa-miR-3529-3p]” is lower in “one-nucleolus phenotype percent effect” value: 19.2% for the first, 14.9% for the second.

First: UCCCACGUUGUGGCCCAGCAG [hsa-miR-662]
Second: UAGCAGCACAGAAAUAUUGGC [hsa-miR-195-5p]
The “one-nucleolus phenotype percent effect” value of the first is lower: -20.4% for the first, 13.4% for the second.

Going from “AGCGGGGAGGAAGUGGGCGCUGCUU [hsa-miR-4706]” to “AAAAGUAAUUGCGGUUUUUGCC [hsa-miR-548am-5p]”, the “one-nucleolus phenotype percent effect” value falls from -0.404% to -17.6%.

For UUCCUAUGCAUAUACUUCUUUG [hsa-miR-202-5p], the “one-nucleolus phenotype percent effect” value was -12.4%.
